Measurements: US20090028790A1 (INSTITUT DE CARDIOLOGIE DE MONTREAL, published 2009)
One block for each molecule: values may come before it. Positions of bridges follow the written chain, without caps; N, C: chain ends. No end group written: not given here.

Experiments:
[1] = target: adrenomedullin receptors in the lungs of dogs (dog); test: cell-based or functional assay
[2] = target: adrenomedullin receptors in the lungs of dogs (dog); test: competition: displacement of iodine-labelled hAM from dog lungs
[3] = target: T1, adrenomedullin receptors in the lungs of dogs (dog, UniProt A0A8I3NWR4 23-462; A0A8I3MWA8 233-365); test: as above
T1 construct: also called AM1 (CRLR+RAMP2) receptor
T1 sequence (chain, as listed by the source, chain 1 of 2): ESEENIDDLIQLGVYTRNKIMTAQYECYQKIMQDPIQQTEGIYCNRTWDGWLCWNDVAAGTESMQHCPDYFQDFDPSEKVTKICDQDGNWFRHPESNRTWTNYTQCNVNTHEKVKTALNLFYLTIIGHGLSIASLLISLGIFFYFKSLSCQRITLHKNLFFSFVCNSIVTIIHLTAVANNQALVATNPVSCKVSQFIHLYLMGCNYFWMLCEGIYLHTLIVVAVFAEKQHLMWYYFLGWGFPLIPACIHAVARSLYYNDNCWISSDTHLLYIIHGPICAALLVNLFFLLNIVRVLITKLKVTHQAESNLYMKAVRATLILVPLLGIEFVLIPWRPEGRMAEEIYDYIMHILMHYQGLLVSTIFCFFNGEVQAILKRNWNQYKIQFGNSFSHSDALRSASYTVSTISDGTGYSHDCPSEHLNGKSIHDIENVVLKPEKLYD
T1 sequence (chain, as listed by the source, chain 2 of 2): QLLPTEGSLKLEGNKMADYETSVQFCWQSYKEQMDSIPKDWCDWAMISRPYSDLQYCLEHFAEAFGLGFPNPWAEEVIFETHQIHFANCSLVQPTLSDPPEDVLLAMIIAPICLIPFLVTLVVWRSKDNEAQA

Chain of adrenomedullin receptors in the lungs of dogs (dog) (chain, as listed by the source, chain 1 of 2): as the sequence (chain, as listed by the source, chain 1 of 2) above
Chain of adrenomedullin receptors in the lungs of dogs (dog) (chain, as listed by the source, chain 2 of 2): as the sequence (chain, as listed by the source, chain 2 of 2) above

single-pass pulmonary extraction of 125I-rAM(1-50) after administration of CGRP (100 nmol i.v.) [1]: 40.6% | single-pass pulmonary extraction of 125I-rAM(1-50), control before CGRP [1]: 44.6%
Molecule: CGRP (Phoenix Pharmaceuticals) (peptide)

mean single-pass pulmonary extraction of 125I-rAM(1-50), dogs in vivo, baseline [1]: 36.4% | mean tracer 125I-rAM(1-50) extraction during a single pulmonary transit time, dog in vivo, one typical experiment, control [1]: 30%
Molecule: 125I-rAM(1-50) (from UniProt P43145 94-143) (peptide)

IC50 [2]: 440 nM
Molecule: hCGRP (from UniProt P06881 83-119) (peptide)

mean extraction of 125I-rAM(1-50) in the same dog after injection of unlabelled rAM(1-50) [1]: 12% | mean single-pass pulmonary extraction of 125I-rAM(1-50) after administration of unlabelled rAM(1-50) (100 nmol i.v.) [1]: 21.9%
Molecule: unlabelled rAM(1-50) (from UniProt P43145 94-143) (peptide)

IC50 [3]: 34 nM
Molecule: SFGCRFGTCTVQKLAHQIYQFTDKDKDNVAPRSKISPQGY-NH2 (ends and bridges not checked) [hAM(13-52)]

IC50 [3]: 480 nM
Molecule: TQAQLLRVGCVLGTCQVQNLSHRLWQLMGPAGRQDSAPVDPSSPHSY (peptide, UniProt Q7Z4H4 101-147, looked up) [hAM2]

IC50 [3]: 7.1 nM
B1: linear human adrenomedullin hAM(1-52) (peptide)
peptide: YRQSMNNFQGLRSFGCRFGTCTVQKLAHQIYQFTDKDKDNVAPRSKISPQGY-NH2
modifications: cysteine pairing not given here
notes: also called hAM linear; linear hAM

IC50 [3]: 0.055 nM
B2: human adrenomedullin hAM(1-52), cyclic (peptide)
peptide: YRQSMNNFQGLRSFGCRFGTCTVQKLAHQIYQFTDKDKDNVAPRSKISPQGY-NH2
modifications: disulfide 16-21
notes: also called hAM (cyclic); cyclic hAM

IC50 [3]: 0.041 nM
B3: N-terminal acetylated human adrenomedullin (peptide)
peptide: Ac-YRQSMNNFQGLRSFGCRFGTCTVQKLAHQIYQFTDKDKDNVAPRSKISPQGY-NH2
modifications: ends and bridges not checked
notes: also called N-Ac hAM; N-terminal acetylated AM

IC50 [3]: 980 nM
B4: hAM2(16-47) (peptide, UniProt Q7Z4H4 116-147, looked up)
peptide: QVQNLSHRLWQLMGPAGRQDSAPVDPSSPHSY
modifications: ends and bridges not checked
notes: range 16-47; Numbering 16-47 is that of the mature AM2 peptide, not of the precursor entry

IC50 [3]: 810 nM
Molecule: TVQKLAHQIYQFTDKDKDNVAPRSKISPQGY-NH2 (also called C-terminal AM fragment) [hAM(22-52)]
